Data published in patent US20250163127A1.
Substitutions are numbered along the chain they refer to. In names and notes the source's numbering stands.

B1: variant PD-L2 IgV H15Q/V31M/S67L/Q82R/V89D Fc fusion (Fc fusion)
chain: LFTVTVPKELYIIEQGSNVTLECNFDTGSHMNLGAITASLQKVENDTSPHRERATLLEEQLPLGKALFHIPQVQVRDEGQYRCIIIYGDAWDYKYLTLKVKA
B2: variant PD-L2 IgV H15Q/N18D/T47A/Q72H/V73A/R76G/I86T/V89D Fc fusion (Fc fusion)
chain: B1 chain with N18D, M31V, T47A, L67S, Q72H, V73A, R76G, R82Q, I86T
B3: variant PD-L2 IgV I13V/H15Q/L33F/T47A/Q82R/V89D Fc fusion (Fc fusion)
chain: B1 chain with I13V, M31V, L33F, T47A, L67S
B4: variant PD-L2 IgV I13V/H15Q/V31A/N45S/Q82R/V89D Fc fusion (Fc fusion)
chain: B1 chain with I13V, M31A, N45S, L67S
B5: variant PD-L2 IgV I13V/H15Q/T47A/Q82R Fc fusion (Fc fusion)
chain: B1 chain with I13V, M31V, T47A, L67S, D89V
B6: variant PD-L2 IgV I13V/H15Q/T47A/H69L/R76G/V89D Fc fusion (Fc fusion)
chain: B1 chain with I13V, M31V, T47A, L67S, H69L, R76G, R82Q
B7: variant PD-L2 IgV H15Q/S39I/E44D/Q72H/V75G/R76G/Q82R/V89D Fc fusion (Fc fusion)
chain: B1 chain with M31V, S39I, E44D, L67S, Q72H, V75G, R76G
B8: variant PD-L2 IgV H15Q/L33H/S67L/R76G/Q82R/V89D Fc fusion (Fc fusion)
chain: B1 chain with M31V, L33H, R76G
B9: variant PD-L2 IgV I13V/H15Q/R76G/D77N/Q82R/V89D Fc fusion (Fc fusion)
chain: B1 chain with I13V, M31V, L67S, R76G, D77N
B10: variant PD-L2 IgV H15Q/L33P/T47A/S67L/P71S/V89D Fc fusion (Fc fusion)
chain: B1 chain with M31V, L33P, T47A, P71S, R82Q
B11: variant PD-L2 IgV I13V/H15Q/T47A/Q72H/R76G/I86T Fc fusion (Fc fusion)
chain: B1 chain with I13V, M31V, T47A, L67S, Q72H, R76G, R82Q, I86T, D89V
B12: variant PD-L2 IgV I13V/H15Q/T47A/S67L/Q72H/R76G/Q82R/V89D Fc fusion (Fc fusion)
chain: B1 chain with I13V, M31V, T47A, Q72H, R76G
B13: variant PD-L2 IgV H15Q/T47A/S67L/Q82R/V89D Fc fusion (Fc fusion)
chain: B1 chain with M31V, T47A
B14: variant PD-L2 IgV H15Q/T47A/S67L/R76G/Q82R/V89D Fc fusion (Fc fusion)
chain: B1 chain with M31V, T47A, R76G
B15: variant PD-L2 IgV I13V/H15Q/I36V/T47A/S67L/V89D Fc fusion (Fc fusion)
chain: B1 chain with I13V, M31V, I36V, T47A, R82Q
B16: variant PD-L2 IgV F2L/H15Q/D46E/T47A/Q72H/R76G/Q82R/V89D Fc fusion (Fc fusion)
chain: B1 chain with F2L, M31V, D46E, T47A, L67S, Q72H, R76G
B17: variant PD-L2 IgV I12V/I13V/H15Q/T47A/Q82R/V89D Fc fusion (Fc fusion)
chain: B1 chain with I12V, I13V, M31V, T47A, L67S
B18: variant PD-L2 IgV I13V/H15Q/Q72H/R76G/I86T Fc fusion (Fc fusion)
chain: B1 chain with I13V, M31V, L67S, Q72H, R76G, R82Q, I86T, D89V
B19: variant PD-L2 IgV I13V/H15Q/E44V/T47A/Q82R/V89D Fc fusion (Fc fusion)
chain: B1 chain with I13V, M31V, E44V, T47A, L67S
B20: variant PD-L2 IgV I13V/H15Q/T47A/E58G/S67L/Q82R/V89D Fc fusion (Fc fusion)
chain: B1 chain with I13V, M31V, T47A, E58G
B21: ICOSL ECD-Fc N84Q/N119Q/N207Q (Fc fusion)
chain: DTQEKEVRAMVGSDVELSCACPEGSRFDLNDVYVYWQTSESKTVVTYHIPQNSSLENVDSRYRNRALMSPAGMLRGDFSLRLFQVTPQDEQKFHCLVLSQSLGFQEVLSVEVTLHVAAQFSVPVVSAPHSPSQDELTFTCTSINGYPRPNVYWINKTDNSLLDQALQNDTVFLNMRGLYDVVSVLRIARTPSVNIGCCIENVLLQQQLTVGSQTGNDIGERDKITENPVSTGEKNAAT
B22: ICOSL-Fc N52R/N57L/Q100A (Fc fusion)
chain: B21 chain with N52R, N57L, Q84N, Q100A, Q119N, Q207N
B23: ICOSL-Fc N52A/N57F/Q100S (Fc fusion)
chain: B21 chain with N52A, N57F, Q84N, Q100S, Q119N, Q207N
B24: ICOSL-Fc N52A/N57H/Q100S (Fc fusion)
chain: B21 chain with N52A, N57H, Q84N, Q100S, Q119N, Q207N
B25: ICOSL-Fc N52Q/N57F (Fc fusion)
chain: B21 chain with N52Q, N57F, Q84N, Q119N, Q207N
B26: ICOSL-Fc N52R/N57Y/Q100S (Fc fusion)
chain: B21 chain with N52R, N57Y, Q84N, Q100S, Q119N, Q207N
B27: ICOSL-Fc N52S/N57M/Q100S (Fc fusion)
chain: B21 chain with N52S, N57M, Q84N, Q100S, Q119N, Q207N
B28: ICOSL-Fc N52S/N57Y/Q100S (Fc fusion)
chain: B21 chain with N52S, N57Y, Q84N, Q100S, Q119N, Q207N
B29: ICOSL-Fc N52S/N57L/Q100S (Fc fusion)
chain: B21 chain with N52S, N57L, Q84N, Q100S, Q119N, Q207N
B30: ICOSL-Fc N52A/N57Y/Q100A (Fc fusion)
chain: B21 chain with N52A, N57Y, Q84N, Q100A, Q119N, Q207N
B31: ICOSL-Fc N52S/N57Y/Q100M (Fc fusion)
chain: B21 chain with N52S, N57Y, Q84N, Q100M, Q119N, Q207N
B32: ICOSL-Fc N52Q/N57S/Q100A (Fc fusion)
chain: B21 chain with N52Q, N57S, Q84N, Q100A, Q119N, Q207N
B33: ICOSL-Fc N52M/N57W/Q100P (Fc fusion)
chain: B21 chain with N52M, N57W, Q84N, Q100P, Q119N, Q207N
B34: ICOSL-Fc N52M/N57H/Q100S (Fc fusion)
chain: B21 chain with N52M, N57H, Q84N, Q100S, Q119N, Q207N
B35: ICOSL-Fc N52S/N57H/Q100E (Fc fusion)
chain: B21 chain with N52S, N57H, Q84N, Q100E, Q119N, Q207N
B36: ICOSL ECD-Fc N52Q/N84Q/N119Q/N168Q (Fc fusion)
chain: B21 chain with N52Q, N168Q, Q207N

The binders below were run against human PD-1 (human) (UniProt Q15116) (assay: not given).
human PD-1 (human), sequence (Q15116 25-288): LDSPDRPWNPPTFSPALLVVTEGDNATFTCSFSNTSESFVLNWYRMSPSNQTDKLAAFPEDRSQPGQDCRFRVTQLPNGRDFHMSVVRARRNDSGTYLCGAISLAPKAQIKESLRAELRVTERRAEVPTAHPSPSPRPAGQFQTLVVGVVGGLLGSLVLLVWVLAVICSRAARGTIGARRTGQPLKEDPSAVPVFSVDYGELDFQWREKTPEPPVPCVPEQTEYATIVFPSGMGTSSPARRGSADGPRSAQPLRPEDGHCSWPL

Binder	IFN gamma levels pg/mL (MLR)
B1	1210 pg/mL
B2	1070 pg/mL
B3	1470 pg/mL
B4	1720 pg/mL
B5	1700 pg/mL
B6	1080 pg/mL
B7	941 pg/mL
B8	1500 pg/mL
B9	1190 pg/mL
B10	1290 pg/mL
B11	1090 pg/mL
B12	1560 pg/mL
B13	1200 pg/mL
B14	1100 pg/mL
B15	1360 pg/mL
B16	1170 pg/mL
B17	1530 pg/mL
B18	1220 pg/mL
B19	1270 pg/mL
B20	836 pg/mL

These binders were tested against CD28 (human) (UniProt P10747) (assay: flow cytometry, transfected cells).

Binder	MFI	MFI parental ratio	MFI ratio to WT (ΔWT)
B21	569 MFI	0.38 fold	–
B22	119000 MFI	–	5.3 fold
B23	157000 MFI	–	7 fold
B24	159000 MFI	–	7.1 fold
B25	131000 MFI	–	5.9 fold
B26	133000 MFI	–	6 fold
B27	134000 MFI	–	6 fold
B28	161000 MFI	–	7.2 fold
B29	108000 MFI	–	4.8 fold
B30	147000 MFI	–	6.6 fold
B31	157000 MFI	–	7 fold
B32	91300 MFI	–	4.1 fold
B33	168000 MFI	–	7.5 fold
B34	115000 MFI	–	5.1 fold
B35	117000 MFI	–	5.2 fold

Each binder was assayed against CTLA-4 (Homo sapiens (Human)) (UniProt P16410) (assay: flow cytometry, transfected cells).
CTLA-4 (Homo sapiens (Human)), sequence (P16410 36-223): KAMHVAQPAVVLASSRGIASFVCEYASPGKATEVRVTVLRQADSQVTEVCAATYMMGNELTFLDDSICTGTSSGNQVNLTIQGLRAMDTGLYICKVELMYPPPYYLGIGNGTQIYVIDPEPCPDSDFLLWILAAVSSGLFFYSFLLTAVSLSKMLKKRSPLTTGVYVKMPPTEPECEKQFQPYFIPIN

Binder	MFI	MFI parental ratio	MFI ratio to WT (ΔWT)
B21	640 MFI	0.17 fold	–
B22	403000 MFI	–	1.22 fold
B23	255000 MFI	–	0.77 fold
B24	321000 MFI	–	0.97 fold
B25	367000 MFI	–	1.11 fold
B26	504000 MFI	–	1.53 fold
B27	228000 MFI	–	0.69 fold
B28	205000 MFI	–	0.62 fold
B29	197000 MFI	–	0.6 fold
B30	320000 MFI	–	0.97 fold
B31	395000 MFI	–	1.2 fold
B32	315000 MFI	–	0.95 fold
B33	343000 MFI	–	1.04 fold
B34	463000 MFI	–	1.4 fold
B35	302000 MFI	–	0.92 fold
B36	3300 MFI	–	–

Each binder was assayed on ICOS (Homo sapiens (Human)) (UniProt Q9Y6W8) (assay: flow cytometry, transfected cells).
ICOS (Homo sapiens (Human)), sequence (Q9Y6W8 21-199 limits assumed): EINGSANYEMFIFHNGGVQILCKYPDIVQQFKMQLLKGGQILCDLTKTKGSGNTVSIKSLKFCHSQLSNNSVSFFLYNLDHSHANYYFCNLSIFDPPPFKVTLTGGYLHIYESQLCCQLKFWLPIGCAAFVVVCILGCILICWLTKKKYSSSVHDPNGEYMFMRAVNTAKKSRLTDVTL

Binder	MFI	MFI parental ratio	MFI ratio to WT (ΔWT)
B21	21400 MFI	0.58 fold	–
B22	308000 MFI	–	1.45 fold
B23	242000 MFI	–	1.14 fold
B24	305000 MFI	–	1.44 fold
B25	192000 MFI	–	0.91 fold
B26	229000 MFI	–	1.08 fold
B27	312000 MFI	–	1.47 fold
B28	224000 MFI	–	1.06 fold
B29	269000 MFI	–	1.27 fold
B30	261000 MFI	–	1.23 fold
B31	303000 MFI	–	1.43 fold
B32	263000 MFI	–	1.24 fold
B33	322000 MFI	–	1.52 fold
B34	266000 MFI	–	1.25 fold
B35	258000 MFI	–	1.22 fold
